Test results taken from patent publication US20050239134.

Target: TGF-beta-1 (TGF-β1 homodimer) (Homo sapiens?) (UniProt P01137)
Assay: EMSA
Settings: PS at dA and dC (5' of A and C; from dATP(αS)/dCTP(αS)); apparent; naive library control; room temp 30 min

Sequence of TGF-beta-1 (TGF-β1 homodimer) (Homo sapiens?) (P01137 279-390): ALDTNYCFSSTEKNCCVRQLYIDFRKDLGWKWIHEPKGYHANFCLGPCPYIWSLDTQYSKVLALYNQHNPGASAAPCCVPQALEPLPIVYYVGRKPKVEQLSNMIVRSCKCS

Sequence “CAGTCCGGATGCTCTAGAGTGACNNNNNNNNNNNNNNNNNNNNNNNNNNNNNNCGAATCTCGTGAAGCCGAGCG [initial 74-mer N30 thiophosphate ssDNA library]” has a Kd of 11 µM.
